Source: publication doi:10.1101/2025.01.27.635100 (bioRxiv, 2025)
“And” between values parts separate entries of the source, which are not always exact repeats. Equal values may be shown once. Values belong to the binder of their own block, whether it stands above or below them.

B6: P2 (PIH1D2), His tag cleaved, co-purified with S1’ (natural protein)
chain: METSSKGLLTQVTQFWNLLDDLAQSDPEGYEKFIQQQLKEGKQLCAAPEPQLCLQTRILKPKEKILFINLCQWTRIPAPQSTTHPVPLTVGKPEDTTEISDAYTVIDVAYNPDVLHAAEKDQVKKNQLIQMAMKCIEEKFQFTLSHSYHITKFRIKGSIQRMKQNLMGIQTDSIDLREKMRRELTLGQIRSSTMSNPDHFPQLLLPKDQVSGKAVCLIEEISSTEIQVEMKMPAYELKIVHDHSEKPLKIELKVELPGINSVSLCDLSVSEDDLLIEVSEKYRLHLNLPKLIDTEMTTAKFIKEKSTLIITMPLV

How the values were obtained:
[1] = target: T1, S1’’ (S1_(622-762)), extended version of S1_TPR3 (human, UniProt Q07617 622-762); test: NMR
T1 sequence: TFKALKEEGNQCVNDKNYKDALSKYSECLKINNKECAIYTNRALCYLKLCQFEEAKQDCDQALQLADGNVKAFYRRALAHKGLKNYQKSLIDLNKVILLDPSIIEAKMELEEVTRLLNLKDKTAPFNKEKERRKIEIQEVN

[2] = target: R1R2 complex (6xHis-R1, 3xFLAG-R2), unlabeled, NMR interaction experiments (human, UniProt Q9Y265;Q9Y230); test: NMR titration
[3] = target: R1^D302N R2^D299N complex, double active site mutant (no hydrolysis, ATP loaded) (human, UniProt Q9Y265;Q9Y230, D302N | D299N); test: SPR
[4] = target: T2, R1R2 hetero-hexamer (pETDuet:His-R1R2-FH8), preparation for cryo-EM, native MS, mass photometry and XL-MS (human, UniProt Q9Y265;Q9Y230); test: native MS
[5] = target: T2, R1R2 hetero-hexamer …; test: mass photometry
[6] = target: RUVBL2 (R2) as a chain of the reconstituted R2S’P sample (human, UniProt Q9Y230 1-463); test: cross-linking
[7] = target: B6; test: cross-linking
[8] = target: RUVBL1 (R1) as a chain of the reconstituted R2S’P sample (human, UniProt Q9Y265 1-456); test: cross-linking
RUVBL1 (R1) as a chain of the reconstituted R2S’P sample, sequence (Q9Y265 whole entry): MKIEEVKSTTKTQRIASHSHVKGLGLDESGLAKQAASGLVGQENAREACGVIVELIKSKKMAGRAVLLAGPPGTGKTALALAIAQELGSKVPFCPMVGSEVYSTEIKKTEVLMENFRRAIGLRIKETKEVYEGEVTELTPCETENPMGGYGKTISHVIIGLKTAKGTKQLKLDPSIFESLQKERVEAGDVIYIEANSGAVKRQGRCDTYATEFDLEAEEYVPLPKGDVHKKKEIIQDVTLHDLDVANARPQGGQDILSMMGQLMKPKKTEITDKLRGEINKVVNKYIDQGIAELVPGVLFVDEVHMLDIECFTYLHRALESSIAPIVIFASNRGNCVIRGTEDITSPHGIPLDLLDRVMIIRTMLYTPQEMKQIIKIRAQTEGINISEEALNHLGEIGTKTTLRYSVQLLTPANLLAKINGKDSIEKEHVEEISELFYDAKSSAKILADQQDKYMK

T2 sequence (Q9Y265 whole entry, chain 1 of 2): as the sequence (Q9Y265 whole entry) above
T2 sequence (Q9Y230 whole entry, chain 2 of 2): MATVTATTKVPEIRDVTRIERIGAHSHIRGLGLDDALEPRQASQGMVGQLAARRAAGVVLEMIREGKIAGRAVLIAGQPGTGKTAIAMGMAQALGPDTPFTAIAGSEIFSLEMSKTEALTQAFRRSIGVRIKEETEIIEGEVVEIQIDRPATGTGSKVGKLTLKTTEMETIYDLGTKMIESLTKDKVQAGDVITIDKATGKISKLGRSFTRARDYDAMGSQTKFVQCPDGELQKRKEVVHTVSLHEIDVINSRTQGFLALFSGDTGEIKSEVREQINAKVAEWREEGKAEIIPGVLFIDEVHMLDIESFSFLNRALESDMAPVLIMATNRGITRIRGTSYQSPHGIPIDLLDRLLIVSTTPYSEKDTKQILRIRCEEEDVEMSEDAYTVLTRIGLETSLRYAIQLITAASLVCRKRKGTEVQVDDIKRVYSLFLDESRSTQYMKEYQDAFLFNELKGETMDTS
RUVBL2 (R2) as a chain of the reconstituted R2S’P sample, sequence (Q9Y230 whole entry): as the sequence (Q9Y230 whole entry, chain 2 of 2) above
R1^D302N R2^D299N complex, double active site mutant (no hydrolysis, ATP loaded), sequence (Q9Y265 whole entry D302N, chain 1 of 2): as the sequence (Q9Y265 whole entry) above, with D302N counted along it
R1^D302N R2^D299N complex, double active site mutant (no hydrolysis, ATP loaded), sequence (Q9Y230 whole entry D299N, chain 2 of 2): as the sequence (Q9Y230 whole entry, chain 2 of 2) above, with D299N counted along it
R1R2 complex (6xHis-R1, 3xFLAG-R2), unlabeled, NMR interaction experiments, sequence (Q9Y265 whole entry, chain 1 of 2): as the sequence (Q9Y265 whole entry) above
R1R2 complex (6xHis-R1, 3xFLAG-R2), unlabeled, NMR interaction experiments, sequence (Q9Y230 whole entry, chain 2 of 2): as the sequence (Q9Y230 whole entry, chain 2 of 2) above

binding result [3]: binds
B3: S1’P2 heterodimer, SPR preparation (complex)
chain 1: TFKALKEEGNQCVNDKNYKDALSKYSECLKINNKECAIYTNRALCYLKLCQFEEAKQDCDQALQLADGNVKAFYRRALAHKGLKNYQKSLIDLNKVILLDPSIIEAKMELEEVTRLLNLKDKTAPFNKEKERRKIEIQEVNEGKEEPGRPAGEVSMGCLASEKGGKSSRSPEDPEKLPIAKPNNAYEFGQIINALSTRKDKEACAHLLAITAPKDLPMFLSNKLEGDTFLLLIQSLKNNLIEKDPSLVYQHLLYLSKAERFKMMLTLISKGQKELIEQLFEDLSDTPNNHFTLEDIQALKRQYEL
chain 2: METSSKGLLTQVTQFWNLLDDLAQSDPEGYEKFIQQQLKEGKQLCAAPEPQLCLQTRILKPKEKILFINLCQWTRIPAPQSTTHPVPLTVGKPEDTTEISDAYTVIDVAYNPDVLHAAEKDQVKKNQLIQMAMKCIEEKFQFTLSHSYHITKFRIKGSIQRMKQNLMGIQTDSIDLREKMRRELTLGQIRSSTMSNPDHFPQLLLPKDQVSGKAVCLIEEISSTEIQVEMKMPAYELKIVHDHSEKPLKIELKVELPGINSVSLCDLSVSEDDLLIEVSEKYRLHLNLPKLIDTEMTTAKFIKEKSTLIITMPLV

binding result [6]: binds
binding result [7]: binds
B5: S1’ (SPAG1 622-926), untagged, co-expressed with His-P2 (domain or fragment)
chain: TFKALKEEGNQCVNDKNYKDALSKYSECLKINNKECAIYTNRALCYLKLCQFEEAKQDCDQALQLADGNVKAFYRRALAHKGLKNYQKSLIDLNKVILLDPSIIEAKMELEEVTRLLNLKDKTAPFNKEKERRKIEIQEVNEGKEEPGRPAGEVSMGCLASEKGGKSSRSPEDPEKLPIAKPNNAYEFGQIINALSTRKDKEACAHLLAITAPKDLPMFLSNKLEGDTFLLLIQSLKNNLIEKDPSLVYQHLLYLSKAERFKMMLTLISKGQKELIEQLFEDLSDTPNNHFTLEDIQALKRQYEL

binding result [3]: binds
B7: S1’P2_(231-315) heterodimer, SPR preparation (complex)
chain 1: TFKALKEEGNQCVNDKNYKDALSKYSECLKINNKECAIYTNRALCYLKLCQFEEAKQDCDQALQLADGNVKAFYRRALAHKGLKNYQKSLIDLNKVILLDPSIIEAKMELEEVTRLLNLKDKTAPFNKEKERRKIEIQEVNEGKEEPGRPAGEVSMGCLASEKGGKSSRSPEDPEKLPIAKPNNAYEFGQIINALSTRKDKEACAHLLAITAPKDLPMFLSNKLEGDTFLLLIQSLKNNLIEKDPSLVYQHLLYLSKAERFKMMLTLISKGQKELIEQLFEDLSDTPNNHFTLEDIQALKRQYEL
chain 2: KMPAYELKIVHDHSEKPLKIELKVELPGINSVSLCDLSVSEDDLLIEVSEKYRLHLNLPKLIDTEMTTAKFIKEKSTLIITMPLV

More lines, now with the values behind:

B1: P2_CS domain (P2_(231-315)) (domain or fragment)
chain: KMPAYELKIVHDHSEKPLKIELKVELPGINSVSLCDLSVSEDDLLIEVSEKYRLHLNLPKLIDTEMTTAKFIKEKSTLIITMPLV
binding result [1]: binds

B2: S1_C (SPAG1 796-926), isotope-labelled NMR sample (domain or fragment)
chain: EKLPIAKPNNAYEFGQIINALSTRKDKEACAHLLAITAPKDLPMFLSNKLEGDTFLLLIQSLKNNLIEKDPSLVYQHLLYLSKAERFKMMLTLISKGQKELIEQLFEDLSDTPNNHFTLEDIQALKRQYEL
binding result [2]: binds

B4: S1’P2 heterodimer, preparation for cryo-EM, native MS, mass photometry and XL-MS (complex)
chain 1: TFKALKEEGNQCVNDKNYKDALSKYSECLKINNKECAIYTNRALCYLKLCQFEEAKQDCDQALQLADGNVKAFYRRALAHKGLKNYQKSLIDLNKVILLDPSIIEAKMELEEVTRLLNLKDKTAPFNKEKERRKIEIQEVNEGKEEPGRPAGEVSMGCLASEKGGKSSRSPEDPEKLPIAKPNNAYEFGQIINALSTRKDKEACAHLLAITAPKDLPMFLSNKLEGDTFLLLIQSLKNNLIEKDPSLVYQHLLYLSKAERFKMMLTLISKGQKELIEQLFEDLSDTPNNHFTLEDIQALKRQYEL
chain 2: METSSKGLLTQVTQFWNLLDDLAQSDPEGYEKFIQQQLKEGKQLCAAPEPQLCLQTRILKPKEKILFINLCQWTRIPAPQSTTHPVPLTVGKPEDTTEISDAYTVIDVAYNPDVLHAAEKDQVKKNQLIQMAMKCIEEKFQFTLSHSYHITKFRIKGSIQRMKQNLMGIQTDSIDLREKMRRELTLGQIRSSTMSNPDHFPQLLLPKDQVSGKAVCLIEEISSTEIQVEMKMPAYELKIVHDHSEKPLKIELKVELPGINSVSLCDLSVSEDDLLIEVSEKYRLHLNLPKLIDTEMTTAKFIKEKSTLIITMPLV
stoichiometry N [4]: 1 S’P2 per R1R2 hexamer and 2 S’P2 per R1R2 hexamer
stoichiometry N [5]: 1 S1’P2 per R1R2 hexamer and 2 S1’P2 per R1R2 hexamer and 1 S1’P2 per R1R2 dodecamer and 2 S1’P2 per R1R2 dodecamer

Binder: B6
binding result [8]: binds
binding result [6]: binds
